# Test results reported in publication PMC11850232.
# Values joined by “and” are separate entries in the source; they are usually repeats but may differ in a detail not shown here. Equal entries are not always repeated.
# What was measured:
# [1] = target: Tilapia Lake virus nucleoprotein (TiLV-NP) (Tilapia Lake virus); assay: cryo-EM structure
# [2] = target: Tilapia Lake virus nucleoprotein (TiLV-NP) (Tilapia Lake virus); assay: mass photometry; apo TiLV-NP at 25 nM; 50 mM HEPES pH 8, 150 mM NaCl, 2 mM TCEP
# [3] = target: Tilapia Lake virus nucleoprotein (TiLV-NP) (Tilapia Lake virus); assay: mass photometry; RNA-bound TiLV-NP (40-mer vRNA loop) at 25 nM TiLV-NP; 50 mM HEPES pH 8, 150 mM NaCl, 2 mM TCEP
# [4] = target: Tilapia Lake virus nucleoprotein (TiLV-NP) (Tilapia Lake virus); assay: as above; remark: listed apart in the source
# [5] = target: Tilapia Lake virus nucleoprotein (TiLV-NP) (Tilapia Lake virus); assay: SEC-MALS; apo TiLV-NP injected at 5 and 3 mg/ml; Superdex 200 Increase 10/300 GL; 50 mM HEPES pH 8, 150 mM NaCl, 2 mM TCEP
substance,measurement,setting,value
Tilapia Lake virus nucleoprotein (TiLV-NP) (natural protein),stoichiometry N,[1],4 and 5 and 6
same,stoichiometry N,[2],3 and 4 and 5
same,stoichiometry N,[3],5 and 6
same,stoichiometry N,[4],3 and 4
same,stoichiometry N,[5],3 and 4
